Values quoted from earlier work, collected in paper PMC3511906.
Read-outs that look alike come from different tables or passages of the source.

Key:
CXCR1 (Mus musculus) [1] = biological target: CXCR1 (Mus musculus) (UniProt Q810W6)
CXCR1 (Mus musculus) [2] = biological target: CXCR1 (Mus musculus) (UniProt Q810W6); remark: listed apart in the source
CXCR2 (Mus musculus) = CXCR2 (Mus musculus) (UniProt P35343)
Sequence of CXCR2 (Mus musculus) (P35343 whole entry): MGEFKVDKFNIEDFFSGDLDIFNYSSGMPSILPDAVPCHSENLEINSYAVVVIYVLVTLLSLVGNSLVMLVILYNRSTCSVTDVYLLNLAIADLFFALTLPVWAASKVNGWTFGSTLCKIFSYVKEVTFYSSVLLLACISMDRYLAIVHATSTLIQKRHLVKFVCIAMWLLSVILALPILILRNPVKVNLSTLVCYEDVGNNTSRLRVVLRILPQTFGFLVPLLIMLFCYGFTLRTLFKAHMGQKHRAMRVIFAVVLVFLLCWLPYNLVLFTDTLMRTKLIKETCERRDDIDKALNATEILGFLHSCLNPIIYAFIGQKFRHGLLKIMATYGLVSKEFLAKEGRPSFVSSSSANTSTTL

Sequence of MIP-2 (P10889 28-100): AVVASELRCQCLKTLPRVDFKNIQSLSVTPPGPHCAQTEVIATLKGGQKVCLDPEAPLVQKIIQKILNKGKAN
Sequence of CXCR1 (Mus musculus) (Q810W6 whole entry): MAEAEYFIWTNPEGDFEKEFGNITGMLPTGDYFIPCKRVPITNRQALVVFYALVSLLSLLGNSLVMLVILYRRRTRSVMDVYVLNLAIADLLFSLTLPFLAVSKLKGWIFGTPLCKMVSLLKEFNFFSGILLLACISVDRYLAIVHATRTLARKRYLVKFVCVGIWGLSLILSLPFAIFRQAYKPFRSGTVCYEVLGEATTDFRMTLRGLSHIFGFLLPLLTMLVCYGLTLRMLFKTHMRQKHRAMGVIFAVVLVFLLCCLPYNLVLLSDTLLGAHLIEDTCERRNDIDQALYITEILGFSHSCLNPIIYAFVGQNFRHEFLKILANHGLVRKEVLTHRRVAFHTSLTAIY
Sequence of CXCL8 (P10145 28-99): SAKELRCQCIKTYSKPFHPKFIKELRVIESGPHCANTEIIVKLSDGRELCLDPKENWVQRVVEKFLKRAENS

Kd (CXCR1 (Mus musculus) [1]) [nM]	Kd (CXCR1 (Mus musculus) [2]) [nM]	Kd (CXCR2 (Mus musculus)) [nM]	Substance
10			CXCL8 (from UniProt P10145)
	643	3.5	MIP-2 (from UniProt P10889)
